This test can be described thus: Saturation mutagenesis of SEQ ID NO:109: dicamba decarboxylation activity of point mutants (carbon dioxide released).
Setting [1] is: dicamba decarboxylation activity of point mutants of SEQ ID NO: 109, relative to unchanged template.
[2] abbreviates: point mutation in SEQ ID NO: 109.

B1: 130 (protein)
chain: MGSSHHHHHHSSGRENLYFQGMKSITFEEHYVIEDIQKETMNAISADPKGVPMKVMLEGLEKKTGFTNADELSHHDERIQFMNNQDVQIQVLSYGNGSPSNLVGQKAIELCQKANDQLANYIAQYPNRFVGFATLPINEPEAAAREFERCINDLGFKGALIMGRAQDGFLDQDKYDIIFKTAENLDVPIYLHPAPVNSDIYQSYYKGNYPEVTAATFACFGYGWHIDVGIHAIHLVLSGIFDRYPKLNMIIGHWGEFIPFFLERMDEALFAEHLNHSVSYYFKNSFYITPSGMLTKPQFDLVKKEVGIDRILYAADYPYIEPEKLGVFLDELGLTDEEKEKISYTNGAKLLGLSSNN
modifications: Staphylococcus Aureus
Regarding B1, the “Fold Activity” value (decarboxylation activity (carbon dioxide released) of point mutant compared with unmutated backbone protein, backbone SEQ ID NO: 109) is given as 1.2.

B2: G27A: point mutant of SEQ ID NO: 109 (protein)
chain: MAQGKVALEEHFAIPETLQDSAGFVPADYWKELQHRLLDIQDTRLKLMDAHGIETMILSLNAPAVQAIPDRRKAIEIARRANDVLAEECAKRPDRFLAFAALPLQDPDAATEELQRCVNDLGFVGALVNGFSQEGDGQTPLYYDLPQYRPFWGEVEKLDVPFYLHPRNPLPQDSRIYDGHPWLLGPTWAFAQETAVHALRLMASGLFDEHPRLNIILGHMGEGLPYMMWRIDHRVAWVKLPPRYPAKRRFMDYFNENFHITTSGNFRTQTLIDAILEIGADRILFSTDWPFENIDHASDWFNATSIAEADRVKIGRTNARRLFKLDGA
modifications: Dicamba decarboxylase variant clone: DC.4.032
For B2, under setting [1], the “Average Activity (Fold of SEQ ID NO: 109)” value is on record as 2.0 Fold of SEQ ID NO: 109.

B3: T43C: point mutant of SEQ ID NO: 109 (protein)
chain: MAQGKVALEEHFAIPETLQDSAGFVPGDYWKELQHRLLDIQDCRLKLMDAHGIETMILSLNAPAVQAIPDRRKAIEIARRANDVLAEECAKRPDRFLAFAALPLQDPDAATEELQRCVNDLGFVGALVNGFSQEGDGQTPLYYDLPQYRPFWGEVEKLDVPFYLHPRNPLPQDSRIYDGHPWLLGPTWAFAQETAVHALRLMASGLFDEHPRLNIILGHMGEGLPYMMWRIDHRVAWVKLPPRYPAKRRFMDYFNENFHITTSGNFRTQTLIDAILEIGADRILFSTDWPFENIDHASDWFNATSIAEADRVKIGRTNARRLFKLDGA
modifications: Dicamba decarboxylase variant clone: DC.4.032
For B3, the “Average Activity (Fold of SEQ ID NO: 109)” value under setting [1] is 1.7 Fold of SEQ ID NO: 109 and the “Average Activity (Fold of SEQ ID NO: 109)” value under setting [2] is on record as 1.7 Fold of SEQ ID NO: 109.

B4: G27T: point mutant of SEQ ID NO: 109 (protein)
chain: MAQGKVALEEHFAIPETLQDSAGFVPTDYWKELQHRLLDIQDTRLKLMDAHGIETMILSLNAPAVQAIPDRRKAIEIARRANDVLAEECAKRPDRFLAFAALPLQDPDAATEELQRCVNDLGFVGALVNGFSQEGDGQTPLYYDLPQYRPFWGEVEKLDVPFYLHPRNPLPQDSRIYDGHPWLLGPTWAFAQETAVHALRLMASGLFDEHPRLNIILGHMGEGLPYMMWRIDHRVAWVKLPPRYPAKRRFMDYFNENFHITTSGNFRTQTLIDAILEIGADRILFSTDWPFENIDHASDWFNATSIAEADRVKIGRTNARRLFKLDGA
modifications: Dicamba decarboxylase variant clone: DC.4.032
As to B4, under setting [1], the “Average Activity (Fold of SEQ ID NO: 109)” value was 2.0 Fold of SEQ ID NO: 109.

B5: D42M: point mutant of SEQ ID NO: 109 (protein)
chain: MAQGKVALEEHFAIPETLQDSAGFVPGDYWKELQHRLLDIQMTRLKLMDAHGIETMILSLNAPAVQAIPDRRKAIEIARRANDVLAEECAKRPDRFLAFAALPLQDPDAATEELQRCVNDLGFVGALVNGFSQEGDGQTPLYYDLPQYRPFWGEVEKLDVPFYLHPRNPLPQDSRIYDGHPWLLGPTWAFAQETAVHALRLMASGLFDEHPRLNIILGHMGEGLPYMMWRIDHRVAWVKLPPRYPAKRRFMDYFNENFHITTSGNFRTQTLIDAILEIGADRILFSTDWPFENIDHASDWFNATSIAEADRVKIGRTNARRLFKLDGA
modifications: Dicamba decarboxylase variant clone: DC.4.032
Turning to B5, the “Average Activity (Fold of SEQ ID NO: 109)” value was 2.4 Fold of SEQ ID NO: 109 under setting [1] and 2.4 Fold of SEQ ID NO: 109 under setting [2].

B6: D42S: point mutant of SEQ ID NO: 109 (protein)
chain: MAQGKVALEEHFAIPETLQDSAGFVPGDYWKELQHRLLDIQSTRLKLMDAHGIETMILSLNAPAVQAIPDRRKAIEIARRANDVLAEECAKRPDRFLAFAALPLQDPDAATEELQRCVNDLGFVGALVNGFSQEGDGQTPLYYDLPQYRPFWGEVEKLDVPFYLHPRNPLPQDSRIYDGHPWLLGPTWAFAQETAVHALRLMASGLFDEHPRLNIILGHMGEGLPYMMWRIDHRVAWVKLPPRYPAKRRFMDYFNENFHITTSGNFRTQTLIDAILEIGADRILFSTDWPFENIDHASDWFNATSIAEADRVKIGRTNARRLFKLDGA
modifications: Dicamba decarboxylase variant clone: DC.4.032
With B6, the “Average Activity (Fold of SEQ ID NO: 109)” value under setting [1] is 2.0 Fold of SEQ ID NO: 109.

B7: D42A: point mutant of SEQ ID NO: 109 (protein)
chain: MAQGKVALEEHFAIPETLQDSAGFVPGDYWKELQHRLLDIQATRLKLMDAHGIETMILSLNAPAVQAIPDRRKAIEIARRANDVLAEECAKRPDRFLAFAALPLQDPDAATEELQRCVNDLGFVGALVNGFSQEGDGQTPLYYDLPQYRPFWGEVEKLDVPFYLHPRNPLPQDSRIYDGHPWLLGPTWAFAQETAVHALRLMASGLFDEHPRLNIILGHMGEGLPYMMWRIDHRVAWVKLPPRYPAKRRFMDYFNENFHITTSGNFRTQTLIDAILEIGADRILFSTDWPFENIDHASDWFNATSIAEADRVKIGRTNARRLFKLDGA
modifications: Dicamba decarboxylase variant clone: DC.4.032
Regarding B7, under setting [1], the “Average Activity (Fold of SEQ ID NO: 109)” value is on record as 2.0 Fold of SEQ ID NO: 109.

B8: A50K: point mutant of SEQ ID NO: 109 (protein)
chain: MAQGKVALEEHFAIPETLQDSAGFVPGDYWKELQHRLLDIQDTRLKLMDKHGIETMILSLNAPAVQAIPDRRKAIEIARRANDVLAEECAKRPDRFLAFAALPLQDPDAATEELQRCVNDLGFVGALVNGFSQEGDGQTPLYYDLPQYRPFWGEVEKLDVPFYLHPRNPLPQDSRIYDGHPWLLGPTWAFAQETAVHALRLMASGLFDEHPRLNIILGHMGEGLPYMMWRIDHRVAWVKLPPRYPAKRRFMDYFNENFHITTSGNFRTQTLIDAILEIGADRILFSTDWPFENIDHASDWFNATSIAEADRVKIGRTNARRLFKLDGA
modifications: Dicamba decarboxylase variant clone: DC.4.032
For B8, the “Average Activity (Fold of SEQ ID NO: 109)” value is given as 1.9 Fold of SEQ ID NO: 109 under setting [1] and 1.9 Fold of SEQ ID NO: 109 under setting [2].

B9: G52E: point mutant of SEQ ID NO: 109 (protein)
chain: MAQGKVALEEHFAIPETLQDSAGFVPGDYWKELQHRLLDIQDTRLKLMDAHEIETMILSLNAPAVQAIPDRRKAIEIARRANDVLAEECAKRPDRFLAFAALPLQDPDAATEELQRCVNDLGFVGALVNGFSQEGDGQTPLYYDLPQYRPFWGEVEKLDVPFYLHPRNPLPQDSRIYDGHPWLLGPTWAFAQETAVHALRLMASGLFDEHPRLNIILGHMGEGLPYMMWRIDHRVAWVKLPPRYPAKRRFMDYFNENFHITTSGNFRTQTLIDAILEIGADRILFSTDWPFENIDHASDWFNATSIAEADRVKIGRTNARRLFKLDGA
modifications: Dicamba decarboxylase variant clone: DC.4.032
For B9, the “Average Activity (Fold of SEQ ID NO: 109)” value is 3.1 Fold of SEQ ID NO: 109 under setting [1] and 3.1 Fold of SEQ ID NO: 109 under setting [2].

B10: W30L: point mutant of SEQ ID NO: 109 (protein)
chain: MAQGKVALEEHFAIPETLQDSAGFVPGDYLKELQHRLLDIQDTRLKLMDAHGIETMILSLNAPAVQAIPDRRKAIEIARRANDVLAEECAKRPDRFLAFAALPLQDPDAATEELQRCVNDLGFVGALVNGFSQEGDGQTPLYYDLPQYRPFWGEVEKLDVPFYLHPRNPLPQDSRIYDGHPWLLGPTWAFAQETAVHALRLMASGLFDEHPRLNIILGHMGEGLPYMMWRIDHRVAWVKLPPRYPAKRRFMDYFNENFHITTSGNFRTQTLIDAILEIGADRILFSTDWPFENIDHASDWFNATSIAEADRVKIGRTNARRLFKLDGA
modifications: Dicamba decarboxylase variant clone: DC.4.032
With B10, the “Average Activity (Fold of SEQ ID NO: 109)” value was 1.7 Fold of SEQ ID NO: 109 under setting [1] and 1.7 Fold of SEQ ID NO: 109 under setting [2].

B11: L38I: point mutant of SEQ ID NO: 109 (protein)
chain: MAQGKVALEEHFAIPETLQDSAGFVPGDYWKELQHRLIDIQDTRLKLMDAHGIETMILSLNAPAVQAIPDRRKAIEIARRANDVLAEECAKRPDRFLAFAALPLQDPDAATEELQRCVNDLGFVGALVNGFSQEGDGQTPLYYDLPQYRPFWGEVEKLDVPFYLHPRNPLPQDSRIYDGHPWLLGPTWAFAQETAVHALRLMASGLFDEHPRLNIILGHMGEGLPYMMWRIDHRVAWVKLPPRYPAKRRFMDYFNENFHITTSGNFRTQTLIDAILEIGADRILFSTDWPFENIDHASDWFNATSIAEADRVKIGRTNARRLFKLDGA
modifications: Dicamba decarboxylase variant clone: DC.4.032
For B11, the “Average Activity (Fold of SEQ ID NO: 109)” value under setting [1] is reported as 2.0 Fold of SEQ ID NO: 109 and the “Average Activity (Fold of SEQ ID NO: 109)” value under setting [2] is given as 2.0 Fold of SEQ ID NO: 109.

B12: G27S: point mutant of SEQ ID NO: 109 (protein)
chain: MAQGKVALEEHFAIPETLQDSAGFVPSDYWKELQHRLLDIQDTRLKLMDAHGIETMILSLNAPAVQAIPDRRKAIEIARRANDVLAEECAKRPDRFLAFAALPLQDPDAATEELQRCVNDLGFVGALVNGFSQEGDGQTPLYYDLPQYRPFWGEVEKLDVPFYLHPRNPLPQDSRIYDGHPWLLGPTWAFAQETAVHALRLMASGLFDEHPRLNIILGHMGEGLPYMMWRIDHRVAWVKLPPRYPAKRRFMDYFNENFHITTSGNFRTQTLIDAILEIGADRILFSTDWPFENIDHASDWFNATSIAEADRVKIGRTNARRLFKLDGA
modifications: Dicamba decarboxylase variant clone: DC.4.032
As for B12, the “Average Activity (Fold of SEQ ID NO: 109)” value by setting is: under setting [1], 2.2 Fold of SEQ ID NO: 109; under setting [2], 2.2 Fold of SEQ ID NO: 109.

Source of the values: patent US20160053277A1, “Compositions Having Dicamba Decarboxylase Activity and Methods of Use” (PIONEER HI-BRED INTERNATIONAL, INC., priority 2013, published 2016).
